The values below come from patent US20210139548A1 (published 2021).

*1 amine or outer side, *2 acyl side, *3 side chain or, on linkers, in order; H or OH if unused. Side-chain parts run from the residue outwards. The star is where a group is joined. C18 diacid = O=C(O)CCCCCCCCCCCCCCCCC(=O)*; γGlu = O=C(O)[C@H](CCC(=O)[*:2])N[*:1]; Isovaleryl = CC(C)CC(=O)*; AEEA = NCCOCCOCC(=O)O

B1: Compound 79 (peptide)
peptide: Isovaleryl-APEK([AEEA-AEEA-γGlu-C18 diacid])PEEEASEEELQRYYVSLRHYYNWLTRQRY-NH2
SMILES: CC(C)CC(=O)N[C@@H](C)C(=O)N1CCC[C@H]1C(=O)N[C@@H](CCC(=O)O)C(=O)N[C@@H](CCCCNC(=O)COCCOCCNC(=O)COCCOCCNC(=O)CC[C@H](NC(=O)CCCCCCCCCCCCCCCCC(=O)O)C(=O)O)C(=O)N1CCC[C@H]1C(=O)N[C@@H](CCC(=O)O)C(=O)N[C@@H](CCC(=O)O)C(=O)N[C@@H](CCC(=O)O)C(=O)N[C@@H](C)C(=O)N[C@@H](CO)C(=O)N[C@@H](CCC(=O)O)C(=O)N[C@@H](CCC(=O)O)C(=O)N[C@@H](CCC(=O)O)C(=O)N[C@@H](CC(C)C)C(=O)N[C@@H](CCC(N)=O)C(=O)N[C@@H](CCCNC(=N)N)C(=O)N[C@@H](Cc1ccc(O)cc1)C(=O)N[C@@H](Cc1ccc(O)cc1)C(=O)N[C@H](C(=O)N[C@@H](CO)C(=O)N[C@@H](CC(C)C)C(=O)N[C@@H](CCCNC(=N)N)C(=O)N[C@@H](Cc1c[nH]cn1)C(=O)N[C@@H](Cc1ccc(O)cc1)C(=O)N[C@@H](Cc1ccc(O)cc1)C(=O)N[C@@H](CC(N)=O)C(=O)N[C@@H](Cc1c[nH]c2ccccc12)C(=O)N[C@@H](CC(C)C)C(=O)N[C@H](C(=O)N[C@@H](CCCNC(=N)N)C(=O)N[C@@H](CCC(N)=O)C(=O)N[C@@H](CCCNC(=N)N)C(=O)N[C@@H](Cc1ccc(O)cc1)C(N)=O)[C@@H](C)O)C(C)C
B2: Compound 89 (peptide)
peptide: Isovaleryl-APEK([AEEA-AEEA-γGlu-C18 diacid])PEEEAEPEELQRYYVSLRHYYNWLTRQRY-NH2
SMILES: CC(C)CC(=O)N[C@@H](C)C(=O)N1CCC[C@H]1C(=O)N[C@@H](CCC(=O)O)C(=O)N[C@@H](CCCCNC(=O)COCCOCCNC(=O)COCCOCCNC(=O)CC[C@H](NC(=O)CCCCCCCCCCCCCCCCC(=O)O)C(=O)O)C(=O)N1CCC[C@H]1C(=O)N[C@@H](CCC(=O)O)C(=O)N[C@@H](CCC(=O)O)C(=O)N[C@@H](CCC(=O)O)C(=O)N[C@@H](C)C(=O)N[C@@H](CCC(=O)O)C(=O)N1CCC[C@H]1C(=O)N[C@@H](CCC(=O)O)C(=O)N[C@@H](CCC(=O)O)C(=O)N[C@@H](CC(C)C)C(=O)N[C@@H](CCC(N)=O)C(=O)N[C@@H](CCCNC(=N)N)C(=O)N[C@@H](Cc1ccc(O)cc1)C(=O)N[C@@H](Cc1ccc(O)cc1)C(=O)N[C@H](C(=O)N[C@@H](CO)C(=O)N[C@@H](CC(C)C)C(=O)N[C@@H](CCCNC(=N)N)C(=O)N[C@@H](Cc1c[nH]cn1)C(=O)N[C@@H](Cc1ccc(O)cc1)C(=O)N[C@@H](Cc1ccc(O)cc1)C(=O)N[C@@H](CC(N)=O)C(=O)N[C@@H](Cc1c[nH]c2ccccc12)C(=O)N[C@@H](CC(C)C)C(=O)N[C@H](C(=O)N[C@@H](CCCNC(=N)N)C(=O)N[C@@H](CCC(N)=O)C(=O)N[C@@H](CCCNC(=N)N)C(=O)N[C@@H](Cc1ccc(O)cc1)C(N)=O)[C@@H](C)O)C(C)C
B3: Compound 87 (peptide)
peptide: Isovaleryl-APEK([AEEA-AEEA-γGlu-C18 diacid])PEEDSSPAELQRYYVSLRHYYNWLTRQRY-NH2
SMILES: CC(C)CC(=O)N[C@@H](C)C(=O)N1CCC[C@H]1C(=O)N[C@@H](CCC(=O)O)C(=O)N[C@@H](CCCCNC(=O)COCCOCCNC(=O)COCCOCCNC(=O)CC[C@H](NC(=O)CCCCCCCCCCCCCCCCC(=O)O)C(=O)O)C(=O)N1CCC[C@H]1C(=O)N[C@@H](CCC(=O)O)C(=O)N[C@@H](CCC(=O)O)C(=O)N[C@@H](CC(=O)O)C(=O)N[C@@H](CO)C(=O)N[C@@H](CO)C(=O)N1CCC[C@H]1C(=O)N[C@@H](C)C(=O)N[C@@H](CCC(=O)O)C(=O)N[C@@H](CC(C)C)C(=O)N[C@@H](CCC(N)=O)C(=O)N[C@@H](CCCNC(=N)N)C(=O)N[C@@H](Cc1ccc(O)cc1)C(=O)N[C@@H](Cc1ccc(O)cc1)C(=O)N[C@H](C(=O)N[C@@H](CO)C(=O)N[C@@H](CC(C)C)C(=O)N[C@@H](CCCNC(=N)N)C(=O)N[C@@H](Cc1c[nH]cn1)C(=O)N[C@@H](Cc1ccc(O)cc1)C(=O)N[C@@H](Cc1ccc(O)cc1)C(=O)N[C@@H](CC(N)=O)C(=O)N[C@@H](Cc1c[nH]c2ccccc12)C(=O)N[C@@H](CC(C)C)C(=O)N[C@H](C(=O)N[C@@H](CCCNC(=N)N)C(=O)N[C@@H](CCC(N)=O)C(=O)N[C@@H](CCCNC(=N)N)C(=O)N[C@@H](Cc1ccc(O)cc1)C(N)=O)[C@@H](C)O)C(C)C
B4: Compound 85 (peptide)
peptide: Isovaleryl-APEK([AEEA-AEEA-γGlu-C18 diacid])PEEDASPEELQRYAVSLRHYYNWLTRQRY-NH2
SMILES: CC(C)CC(=O)N[C@@H](C)C(=O)N1CCC[C@H]1C(=O)N[C@@H](CCC(=O)O)C(=O)N[C@@H](CCCCNC(=O)COCCOCCNC(=O)COCCOCCNC(=O)CC[C@H](NC(=O)CCCCCCCCCCCCCCCCC(=O)O)C(=O)O)C(=O)N1CCC[C@H]1C(=O)N[C@@H](CCC(=O)O)C(=O)N[C@@H](CCC(=O)O)C(=O)N[C@@H](CC(=O)O)C(=O)N[C@@H](C)C(=O)N[C@@H](CO)C(=O)N1CCC[C@H]1C(=O)N[C@@H](CCC(=O)O)C(=O)N[C@@H](CCC(=O)O)C(=O)N[C@@H](CC(C)C)C(=O)N[C@@H](CCC(N)=O)C(=O)N[C@@H](CCCNC(=N)N)C(=O)N[C@@H](Cc1ccc(O)cc1)C(=O)N[C@@H](C)C(=O)N[C@H](C(=O)N[C@@H](CO)C(=O)N[C@@H](CC(C)C)C(=O)N[C@@H](CCCNC(=N)N)C(=O)N[C@@H](Cc1c[nH]cn1)C(=O)N[C@@H](Cc1ccc(O)cc1)C(=O)N[C@@H](Cc1ccc(O)cc1)C(=O)N[C@@H](CC(N)=O)C(=O)N[C@@H](Cc1c[nH]c2ccccc12)C(=O)N[C@@H](CC(C)C)C(=O)N[C@H](C(=O)N[C@@H](CCCNC(=N)N)C(=O)N[C@@H](CCC(N)=O)C(=O)N[C@@H](CCCNC(=N)N)C(=O)N[C@@H](Cc1ccc(O)cc1)C(N)=O)[C@@H](C)O)C(C)C
B5: Compound 80 (peptide)
peptide: Isovaleryl-APEK([AEEA-AEEA-γGlu-C18 diacid])PEEEASPEETQRYYVSLRHYYNWLTRQRY-NH2
SMILES: CC(C)CC(=O)N[C@@H](C)C(=O)N1CCC[C@H]1C(=O)N[C@@H](CCC(=O)O)C(=O)N[C@@H](CCCCNC(=O)COCCOCCNC(=O)COCCOCCNC(=O)CC[C@H](NC(=O)CCCCCCCCCCCCCCCCC(=O)O)C(=O)O)C(=O)N1CCC[C@H]1C(=O)N[C@@H](CCC(=O)O)C(=O)N[C@@H](CCC(=O)O)C(=O)N[C@@H](CCC(=O)O)C(=O)N[C@@H](C)C(=O)N[C@@H](CO)C(=O)N1CCC[C@H]1C(=O)N[C@@H](CCC(=O)O)C(=O)N[C@@H](CCC(=O)O)C(=O)N[C@H](C(=O)N[C@@H](CCC(N)=O)C(=O)N[C@@H](CCCNC(=N)N)C(=O)N[C@@H](Cc1ccc(O)cc1)C(=O)N[C@@H](Cc1ccc(O)cc1)C(=O)N[C@H](C(=O)N[C@@H](CO)C(=O)N[C@@H](CC(C)C)C(=O)N[C@@H](CCCNC(=N)N)C(=O)N[C@@H](Cc1c[nH]cn1)C(=O)N[C@@H](Cc1ccc(O)cc1)C(=O)N[C@@H](Cc1ccc(O)cc1)C(=O)N[C@@H](CC(N)=O)C(=O)N[C@@H](Cc1c[nH]c2ccccc12)C(=O)N[C@@H](CC(C)C)C(=O)N[C@H](C(=O)N[C@@H](CCCNC(=N)N)C(=O)N[C@@H](CCC(N)=O)C(=O)N[C@@H](CCCNC(=N)N)C(=O)N[C@@H](Cc1ccc(O)cc1)C(N)=O)[C@@H](C)O)C(C)C)[C@@H](C)O
B6: Compound 86 (peptide)
peptide: Isovaleryl-APEK([AEEA-AEEA-γGlu-C18 diacid])PEADASPEELQRYEVSLRHYYNWLTRQRY-NH2
SMILES: CC(C)CC(=O)N[C@@H](C)C(=O)N1CCC[C@H]1C(=O)N[C@@H](CCC(=O)O)C(=O)N[C@@H](CCCCNC(=O)COCCOCCNC(=O)COCCOCCNC(=O)CC[C@H](NC(=O)CCCCCCCCCCCCCCCCC(=O)O)C(=O)O)C(=O)N1CCC[C@H]1C(=O)N[C@@H](CCC(=O)O)C(=O)N[C@@H](C)C(=O)N[C@@H](CC(=O)O)C(=O)N[C@@H](C)C(=O)N[C@@H](CO)C(=O)N1CCC[C@H]1C(=O)N[C@@H](CCC(=O)O)C(=O)N[C@@H](CCC(=O)O)C(=O)N[C@@H](CC(C)C)C(=O)N[C@@H](CCC(N)=O)C(=O)N[C@@H](CCCNC(=N)N)C(=O)N[C@@H](Cc1ccc(O)cc1)C(=O)N[C@@H](CCC(=O)O)C(=O)N[C@H](C(=O)N[C@@H](CO)C(=O)N[C@@H](CC(C)C)C(=O)N[C@@H](CCCNC(=N)N)C(=O)N[C@@H](Cc1c[nH]cn1)C(=O)N[C@@H](Cc1ccc(O)cc1)C(=O)N[C@@H](Cc1ccc(O)cc1)C(=O)N[C@@H](CC(N)=O)C(=O)N[C@@H](Cc1c[nH]c2ccccc12)C(=O)N[C@@H](CC(C)C)C(=O)N[C@H](C(=O)N[C@@H](CCCNC(=N)N)C(=O)N[C@@H](CCC(N)=O)C(=O)N[C@@H](CCCNC(=N)N)C(=O)N[C@@H](Cc1ccc(O)cc1)C(N)=O)[C@@H](C)O)C(C)C

This assay concerns the target T1, human neuropeptide Y2 receptor (human, UniProt P49146 1-381).
T1 construct: whole, on cells; also called hNPY2 receptor; hNPY2-R
T1 sequence (looked up): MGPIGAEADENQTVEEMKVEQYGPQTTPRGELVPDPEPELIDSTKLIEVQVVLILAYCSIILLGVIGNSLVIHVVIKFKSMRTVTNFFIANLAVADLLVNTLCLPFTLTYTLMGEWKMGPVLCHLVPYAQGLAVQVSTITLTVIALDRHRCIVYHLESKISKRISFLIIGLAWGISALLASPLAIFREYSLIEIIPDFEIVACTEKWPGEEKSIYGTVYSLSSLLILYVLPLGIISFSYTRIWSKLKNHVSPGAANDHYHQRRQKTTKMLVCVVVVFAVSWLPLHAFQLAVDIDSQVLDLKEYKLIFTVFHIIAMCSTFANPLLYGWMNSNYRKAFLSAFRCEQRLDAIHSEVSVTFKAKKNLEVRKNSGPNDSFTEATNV
The assay is described as follows: radioligand competition (125I-PYY(1-36)), hNPY2R membranes. The gist of the method:
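Commercial human Y2 receptor membranes (0.5 μg protein/well) were incubated with peptide for 2 h at room temperature in 50 mM HEPES, 5 mM MgCl₂, 1 mM CaCl₂, pH 7.4, with 0.2% ovalbumin. Bound radioligand was separated on PEI-soaked GF/C filters and counted by scintillation, and IC₅₀ came from nonlinear sigmoidal regression.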
A general note: Displacement assays read how much labelled ligand stays bound in the presence of the test substance.
For B1, the Ki stood at 4.52 nM. As for B2, the figure is 9.61 nM; as for B3, 1.97 nM; as for B4, 1.56 nM.

On to B5, for which the Ki was 6.96 nM. To B6 belongs 1.19 nM.

For orientation: Ki means a dissociation constant, usually derived from enzyme kinetics or from competition with a known ligand. Low values mean a stronger hold on the target, high ones a looser hold on the target.
